Consider six molecules from publication PMC4389316, “C-terminal residues of skeletal muscle calsequestrin are essential for calcium binding and for skeletal ryanodine receptor inhibition” (Skeletal Muscle, 2015).

The target in one experiment is junctin. The experiment is described as follows: co-immunoprecipitation (CSQ1 IP, Western blot densitometry). As to conditions: 1 mM Ca2+; parent: est. 100; read off a plot. For orientation: In western blotting, separated proteins are transferred to a membrane and probed.
For experiment [1], the target named is T1, skeletal triadin 95 kDa (trisk95) (rabbit (endogenous in skeletal muscle …, UniProt Q28820 1-706)).
T1 construct: triadin, skeletal muscle 95 kDa isoform, isolated from SR vesicles of New Zealand White rabbit back and leg muscle; also called triadin skeletal muscle 95 kDa; source: purified from rabbit skeletal SR vesicles (SDS preparative gel electrophoresis)
T1 sequence (looked up): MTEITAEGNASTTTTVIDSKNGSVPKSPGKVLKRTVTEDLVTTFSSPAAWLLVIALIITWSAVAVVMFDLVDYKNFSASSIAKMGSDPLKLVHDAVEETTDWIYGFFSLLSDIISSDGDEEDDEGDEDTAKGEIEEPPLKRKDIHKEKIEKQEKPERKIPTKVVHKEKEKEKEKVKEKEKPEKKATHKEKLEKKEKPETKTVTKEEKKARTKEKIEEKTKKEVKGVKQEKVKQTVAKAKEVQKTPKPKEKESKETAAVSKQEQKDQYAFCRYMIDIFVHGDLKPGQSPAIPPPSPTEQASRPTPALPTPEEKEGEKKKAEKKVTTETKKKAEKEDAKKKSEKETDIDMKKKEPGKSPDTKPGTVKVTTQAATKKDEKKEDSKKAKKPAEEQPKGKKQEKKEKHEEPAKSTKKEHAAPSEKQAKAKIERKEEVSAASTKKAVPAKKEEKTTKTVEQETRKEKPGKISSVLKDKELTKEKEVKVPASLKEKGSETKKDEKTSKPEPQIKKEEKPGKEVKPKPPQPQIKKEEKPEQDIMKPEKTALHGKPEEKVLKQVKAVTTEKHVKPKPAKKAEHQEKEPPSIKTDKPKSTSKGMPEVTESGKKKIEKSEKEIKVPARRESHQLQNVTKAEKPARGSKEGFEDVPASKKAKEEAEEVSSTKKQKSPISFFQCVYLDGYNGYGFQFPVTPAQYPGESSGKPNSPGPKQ
The experiment is described as follows: co-IP; purified CSQ1 construct coupled to anti-CSQ1/protein A/G agarose (Pierce kit), then exposed to purified trisk95 or junctin; 20 mM MOPS, 150 mM NaCl, 1 mM CaCl2, pH 7.4; CSQ1 to partner 2:1 by weight; Western blot. Particulars: both partners purified.

The target in experiment [2] is ryanodine receptor type 1 (RyR1), purified (rabbit (endogenous in skeletal muscle …, UniProt P11716 1-5037)). Kind of experiment: cell-based or functional assay.
Chain of ryanodine receptor type 1 (RyR1), purified (rabbit (P11716 whole entry): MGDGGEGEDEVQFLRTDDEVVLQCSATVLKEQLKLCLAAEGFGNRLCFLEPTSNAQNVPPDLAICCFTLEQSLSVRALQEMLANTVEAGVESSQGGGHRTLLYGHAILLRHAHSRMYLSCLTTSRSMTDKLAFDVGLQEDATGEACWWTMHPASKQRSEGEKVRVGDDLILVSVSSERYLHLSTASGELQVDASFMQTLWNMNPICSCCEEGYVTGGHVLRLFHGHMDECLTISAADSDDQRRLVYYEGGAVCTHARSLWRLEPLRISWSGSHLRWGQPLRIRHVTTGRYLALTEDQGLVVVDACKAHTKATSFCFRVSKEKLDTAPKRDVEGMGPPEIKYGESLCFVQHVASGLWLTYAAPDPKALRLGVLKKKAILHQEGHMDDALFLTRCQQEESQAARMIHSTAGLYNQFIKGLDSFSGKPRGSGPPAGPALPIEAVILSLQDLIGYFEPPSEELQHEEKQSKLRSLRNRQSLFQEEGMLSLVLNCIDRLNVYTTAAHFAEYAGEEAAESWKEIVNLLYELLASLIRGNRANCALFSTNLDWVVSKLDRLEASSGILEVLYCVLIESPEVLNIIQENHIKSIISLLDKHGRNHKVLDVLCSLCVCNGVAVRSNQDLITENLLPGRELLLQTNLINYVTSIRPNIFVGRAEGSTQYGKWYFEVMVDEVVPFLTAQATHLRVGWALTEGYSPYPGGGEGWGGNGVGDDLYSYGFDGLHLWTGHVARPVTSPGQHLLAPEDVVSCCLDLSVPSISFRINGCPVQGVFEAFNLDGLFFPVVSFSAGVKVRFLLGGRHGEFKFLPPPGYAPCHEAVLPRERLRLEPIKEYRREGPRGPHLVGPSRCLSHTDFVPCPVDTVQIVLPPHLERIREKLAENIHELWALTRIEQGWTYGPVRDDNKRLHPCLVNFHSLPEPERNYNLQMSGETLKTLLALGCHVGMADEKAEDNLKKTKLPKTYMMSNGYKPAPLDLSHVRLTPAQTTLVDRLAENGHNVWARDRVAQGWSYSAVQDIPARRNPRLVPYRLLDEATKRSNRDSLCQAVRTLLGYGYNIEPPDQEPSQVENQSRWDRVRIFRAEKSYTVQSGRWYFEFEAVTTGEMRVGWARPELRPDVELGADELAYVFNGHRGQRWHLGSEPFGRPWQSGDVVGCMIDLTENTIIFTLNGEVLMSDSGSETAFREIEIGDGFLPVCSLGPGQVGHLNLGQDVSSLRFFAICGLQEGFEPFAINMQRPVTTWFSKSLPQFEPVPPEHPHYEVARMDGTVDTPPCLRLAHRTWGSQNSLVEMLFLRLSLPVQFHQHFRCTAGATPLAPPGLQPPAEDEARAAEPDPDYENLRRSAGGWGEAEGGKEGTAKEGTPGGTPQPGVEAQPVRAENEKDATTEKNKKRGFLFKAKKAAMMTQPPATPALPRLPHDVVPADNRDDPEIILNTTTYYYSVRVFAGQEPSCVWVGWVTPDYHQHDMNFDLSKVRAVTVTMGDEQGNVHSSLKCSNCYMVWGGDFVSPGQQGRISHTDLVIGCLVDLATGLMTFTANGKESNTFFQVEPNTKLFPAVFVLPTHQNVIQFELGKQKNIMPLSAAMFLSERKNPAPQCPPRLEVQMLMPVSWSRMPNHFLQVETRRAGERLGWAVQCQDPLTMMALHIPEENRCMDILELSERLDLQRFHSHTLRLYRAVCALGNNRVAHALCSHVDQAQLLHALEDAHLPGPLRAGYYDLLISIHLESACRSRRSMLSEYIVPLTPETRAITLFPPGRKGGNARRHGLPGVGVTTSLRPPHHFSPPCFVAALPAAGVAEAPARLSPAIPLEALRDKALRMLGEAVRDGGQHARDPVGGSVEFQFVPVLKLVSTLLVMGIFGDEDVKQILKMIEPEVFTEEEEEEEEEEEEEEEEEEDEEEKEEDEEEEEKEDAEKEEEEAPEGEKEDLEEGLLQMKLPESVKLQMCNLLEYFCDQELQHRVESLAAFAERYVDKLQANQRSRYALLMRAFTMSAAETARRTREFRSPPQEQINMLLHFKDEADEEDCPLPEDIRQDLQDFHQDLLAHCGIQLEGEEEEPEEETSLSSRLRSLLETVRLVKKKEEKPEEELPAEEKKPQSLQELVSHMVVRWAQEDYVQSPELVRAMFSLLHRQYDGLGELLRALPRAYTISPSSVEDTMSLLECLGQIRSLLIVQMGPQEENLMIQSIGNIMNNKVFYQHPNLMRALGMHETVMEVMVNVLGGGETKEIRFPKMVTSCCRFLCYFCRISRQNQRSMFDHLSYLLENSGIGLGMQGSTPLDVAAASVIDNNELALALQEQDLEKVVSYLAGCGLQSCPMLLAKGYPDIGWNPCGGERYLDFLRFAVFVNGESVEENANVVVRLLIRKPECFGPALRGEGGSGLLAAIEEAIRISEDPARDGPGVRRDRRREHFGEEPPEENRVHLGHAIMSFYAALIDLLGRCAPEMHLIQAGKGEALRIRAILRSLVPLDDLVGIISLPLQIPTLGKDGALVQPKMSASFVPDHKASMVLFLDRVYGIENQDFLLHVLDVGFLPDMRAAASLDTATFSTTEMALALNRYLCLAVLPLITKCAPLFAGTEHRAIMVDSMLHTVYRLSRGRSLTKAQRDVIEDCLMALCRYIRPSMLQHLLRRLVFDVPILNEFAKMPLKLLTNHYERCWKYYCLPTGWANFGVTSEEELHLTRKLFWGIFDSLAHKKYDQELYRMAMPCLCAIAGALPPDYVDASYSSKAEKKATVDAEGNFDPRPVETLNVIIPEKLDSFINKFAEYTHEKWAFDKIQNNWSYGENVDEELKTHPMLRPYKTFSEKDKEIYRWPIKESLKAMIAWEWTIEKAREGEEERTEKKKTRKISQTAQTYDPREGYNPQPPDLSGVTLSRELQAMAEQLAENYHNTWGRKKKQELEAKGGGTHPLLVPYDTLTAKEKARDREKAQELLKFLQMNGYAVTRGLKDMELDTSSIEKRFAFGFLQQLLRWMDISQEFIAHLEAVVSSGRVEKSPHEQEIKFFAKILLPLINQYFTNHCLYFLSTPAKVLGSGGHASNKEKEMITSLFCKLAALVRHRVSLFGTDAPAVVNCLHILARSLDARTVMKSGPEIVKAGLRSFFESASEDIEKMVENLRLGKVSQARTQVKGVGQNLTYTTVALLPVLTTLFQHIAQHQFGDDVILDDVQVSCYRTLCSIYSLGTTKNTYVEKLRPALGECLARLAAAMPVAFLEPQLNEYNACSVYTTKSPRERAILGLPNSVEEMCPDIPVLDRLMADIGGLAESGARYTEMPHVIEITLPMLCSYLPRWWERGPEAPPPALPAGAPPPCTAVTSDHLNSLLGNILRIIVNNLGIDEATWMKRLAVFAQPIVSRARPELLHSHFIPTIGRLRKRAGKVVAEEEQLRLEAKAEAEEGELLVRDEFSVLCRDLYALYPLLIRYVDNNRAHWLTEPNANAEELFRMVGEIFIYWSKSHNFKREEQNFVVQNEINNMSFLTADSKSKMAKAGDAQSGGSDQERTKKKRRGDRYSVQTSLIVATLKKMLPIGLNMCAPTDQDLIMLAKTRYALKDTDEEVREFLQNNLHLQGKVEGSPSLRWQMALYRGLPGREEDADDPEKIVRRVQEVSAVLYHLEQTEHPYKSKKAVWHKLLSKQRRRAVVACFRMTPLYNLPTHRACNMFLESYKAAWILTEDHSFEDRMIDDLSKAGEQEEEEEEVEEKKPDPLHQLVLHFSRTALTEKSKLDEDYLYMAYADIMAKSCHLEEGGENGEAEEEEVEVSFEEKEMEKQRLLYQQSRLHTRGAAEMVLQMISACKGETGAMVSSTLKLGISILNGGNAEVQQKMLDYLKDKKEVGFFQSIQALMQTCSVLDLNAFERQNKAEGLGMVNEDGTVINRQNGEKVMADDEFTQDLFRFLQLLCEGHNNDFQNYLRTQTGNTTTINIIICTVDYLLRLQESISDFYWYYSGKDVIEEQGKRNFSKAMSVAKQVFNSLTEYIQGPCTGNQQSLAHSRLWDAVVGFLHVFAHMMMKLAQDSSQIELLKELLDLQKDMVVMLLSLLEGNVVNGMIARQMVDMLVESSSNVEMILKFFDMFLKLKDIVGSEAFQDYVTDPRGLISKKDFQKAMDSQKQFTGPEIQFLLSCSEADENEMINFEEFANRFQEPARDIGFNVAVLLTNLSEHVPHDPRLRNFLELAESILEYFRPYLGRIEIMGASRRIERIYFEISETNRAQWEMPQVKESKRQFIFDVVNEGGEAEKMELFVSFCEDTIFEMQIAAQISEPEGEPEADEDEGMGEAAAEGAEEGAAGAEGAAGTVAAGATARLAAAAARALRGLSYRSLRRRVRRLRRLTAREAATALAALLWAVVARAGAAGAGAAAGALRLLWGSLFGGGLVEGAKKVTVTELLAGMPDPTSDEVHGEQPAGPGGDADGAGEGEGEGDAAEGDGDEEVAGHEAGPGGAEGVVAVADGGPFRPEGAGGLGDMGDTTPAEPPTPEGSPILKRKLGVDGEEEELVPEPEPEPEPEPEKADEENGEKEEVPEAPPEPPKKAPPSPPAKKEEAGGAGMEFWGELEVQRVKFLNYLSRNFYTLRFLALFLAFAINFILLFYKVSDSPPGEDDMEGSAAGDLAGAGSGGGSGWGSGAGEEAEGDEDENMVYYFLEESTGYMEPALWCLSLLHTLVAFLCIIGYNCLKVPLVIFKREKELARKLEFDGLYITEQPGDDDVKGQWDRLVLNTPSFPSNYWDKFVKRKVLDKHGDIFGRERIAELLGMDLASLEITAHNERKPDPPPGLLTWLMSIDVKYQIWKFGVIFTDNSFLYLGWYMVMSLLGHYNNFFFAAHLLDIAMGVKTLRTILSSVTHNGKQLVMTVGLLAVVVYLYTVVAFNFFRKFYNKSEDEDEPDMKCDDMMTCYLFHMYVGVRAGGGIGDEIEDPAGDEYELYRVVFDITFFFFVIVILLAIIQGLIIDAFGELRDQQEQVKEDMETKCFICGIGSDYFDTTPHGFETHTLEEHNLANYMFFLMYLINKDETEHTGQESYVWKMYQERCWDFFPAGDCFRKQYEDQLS

As for “wild-type (WT) calsequestrin type 1 (CSQ1), rabbit (from UniProt P07221) D363A; D365A; D367A”, in the experiment with junctin, the percent of parent (% relative binding) was determined as 92. Same read-out and setting: with “wild-type (WT) calsequestrin type 1 (CSQ1), rabbit (from UniProt P07221) D367A” the figure was 110; with “wild-type (WT) calsequestrin type 1 (CSQ1), rabbit (from UniProt P07221) D365A; D367A”, 110.

B1: wild-type (WT) calsequestrin type 1 (CSQ1), rabbit (natural protein, UniProt P07221 29-395, looked up)
chain: EEGLDFPEYDGVDRVINVNAKNYKNVFKKYEVLALLYHEPPEDDKASQRQFEMEELILELAAQVLEDKGVGFGLVDSEKDAAVAKKLGLTEEDSIYVFKEDEVIEYDGEFSADTLVEFLLDVLEDPVELIEGERELQAFENIEDEIKLIGYFKNKDSEHYKAFKEAAEEFHPYIPFFATFDSKVAKKLTLKLNEIDFYEAFMEEPVTIPDKPNSEEEIVNFVEEHRRSTLRKLKPESMYETWEDDMDGIHIVAFAEEADPDGYEFLEILKSVAQDNTDNPDLSIIWIDPDDFPLLVPYWEKTFDIDLSAPQIGVVNVTDADSVWMEMDDEEDLPSAEELEDWLEDVLEGEINTEDDDDEDDDDDDDD
notes: GST was cleaved with Factor Xa for single channel and 45Ca studies; probably GST-CSQ1 on Glutathione Sepharose; the discussion calls WT 'full-length CSQ1', while the numbering (C-terminus = 367) is that of the mature protein; also called WT CSQ1; WT CSQ; source: rabbit CSQ1 cDNA in pGEX5x1, expressed as previously described [34], purified
On to B1, for which, in experiment [1], the binding result is listed as “binds”. For the same molecule, the “activation of purified RyR1 in lipid bilayers by WT CSQ1” value in experiment [2] was roughly 2.8 fold.

B2: CSQ1DA3 (rabbit CSQ1 with three alternate C-terminal acidic residues changed to alanine) (natural protein, UniProt P07221 29-395, looked up)
chain: EEGLDFPEYDGVDRVINVNAKNYKNVFKKYEVLALLYHEPPEDDKASQRQFEMEELILELAAQVLEDKGVGFGLVDSEKDAAVAKKLGLTEEDSIYVFKEDEVIEYDGEFSADTLVEFLLDVLEDPVELIEGERELQAFENIEDEIKLIGYFKNKDSEHYKAFKEAAEEFHPYIPFFATFDSKVAKKLTLKLNEIDFYEAFMEEPVTIPDKPNSEEEIVNFVEEHRRSTLRKLKPESMYETWEDDMDGIHIVAFAEEADPDGYEFLEILKSVAQDNTDNPDLSIIWIDPDDFPLLVPYWEKTFDIDLSAPQIGVVNVTDADSVWMEMDDEEDLPSAEELEDWLEDVLEGEINTEDDDDEDDDADADA
notes: GST state as for m1; also called CSQ1D∆3; source: rabbit CSQ1 cDNA in pGEX5x1, expressed as previously described [34], purified
For B2, in experiment [1], the binding result was “binds”.

B3: CSQ1_(∆C14) (rabbit CSQ1 lacking the whole C-terminal tail, residues 354-367) (domain or fragment, UniProt P07221 29-381, looked up)
chain: EEGLDFPEYDGVDRVINVNAKNYKNVFKKYEVLALLYHEPPEDDKASQRQFEMEELILELAAQVLEDKGVGFGLVDSEKDAAVAKKLGLTEEDSIYVFKEDEVIEYDGEFSADTLVEFLLDVLEDPVELIEGERELQAFENIEDEIKLIGYFKNKDSEHYKAFKEAAEEFHPYIPFFATFDSKVAKKLTLKLNEIDFYEAFMEEPVTIPDKPNSEEEIVNFVEEHRRSTLRKLKPESMYETWEDDMDGIHIVAFAEEADPDGYEFLEILKSVAQDNTDNPDLSIIWIDPDDFPLLVPYWEKTFDIDLSAPQIGVVNVTDADSVWMEMDDEEDLPSAEELEDWLEDVLEGEINT
On to B3, for which, in experiment [2], the “rise in activity (open probability) of purified RyR1 in lipid bilayers after trans addition of CSQ1∆C14” value was roughly 1.9 fold.
